Experiments:
[1] = biological target: T1, HLA-A2.1 (heavy chain with human beta 2-microglobulin) (human); assay: competition with 5 nM radiolabeled HBc18-27 for HLA-A2.1 + b2m, gel filtration
[2] = biological target: T1, HLA-A2.1 (heavy chain with human beta …); assay: competition with radiolabeled HBc18-27 for soluble HLA-A2.1 + b2m, gel filtration
[3] = biological target: T1, HLA-A2.1 (heavy chain with human beta …); assay: IC50 of standard HBc18-27 peptide ([…] nM) / IC50 of sample peptide, same competition assay

Binder | IC50 [1] [nM] | IC50 [2] [nM] | Ratio to Standard [3]
ITMQVPFSV (modifications not checked) [G9-209-3M] | 40 | – | –
ILYQVPFSV (modifications not checked) [G9-209-2L3Y] | 5 | – | –
ILSQVPFSV (modifications not checked) [G9-209-2L3S] | 20 | – | –
LLDGTATLRL (modifications not checked) [gp100 peptide G10-4] | – | 483 | 0.01
VLYRYGSFSV (modifications not checked) [gp100 peptide G10-5] | – | 13 | 0.38
YMNGTMSQV (modifications not checked) [tyrosinase peptide T9369] | – | 40 | 0.13
KLWGQYWQV (modifications not checked) [G9-154-2L] | 2 | – | –
KMWGQYWQV (modifications not checked) [G9-154-2M] | 6.5 | – | –
KIWGQYWQV (modifications not checked) [G9-154-2I] | 3 | – | –
WTWGQYWQV (modifications not checked) [G9-154-1W] | 60 | – | –
FTWGQYWQV (modifications not checked) [G9-154-1F] | 1.6 | – | –
YTWGQYWQV (modifications not checked) [G9-154-1Y] | 2.5 | – | –
ATWGQYWQV (modifications not checked) [G9-154-1A] | 5.2 | – | –
LTWGQYWQV (modifications not checked) [G9-154-1L] | 3.4 | – | –
KTYGQYWQV (modifications not checked) [G9-154-3Y] | 30 | – | –
KTFGQYWQV (modifications not checked) [G9-154-3F] | 21 | – | –
ALWGQYWQV (modifications not checked) [G9-154-1A2L] | 2.3 | – | –
LLWGQYWQV (modifications not checked) [G9-154-1L2L] | 1.6 | – | –
WLWGQYWQV (modifications not checked) [G9-154-1W2L] | 2.8 | – | –
FLWGQYWQV (modifications not checked) [G9-154-1F2L] | 2.6 | – | –
YLWGQYWQV (modifications not checked) [G9-154-1Y2L] | 1.7 | – | –

From US7612044
